According to PMC4750549:
pKd: −log10 of the molar value.

Assays:
CD200 (Homo sapiens) = CD200 (Homo sapiens) (UniProt P41217); settings: cited from earlier work
CD200 (Mus musculus) = CD200 (Mus musculus) (UniProt O54901); settings: cited from earlier work
[1] = target: CD200 (Rattus norvegicus) (UniProt P04218); settings: cited from earlier work
[2] = target: rabbit CD200R rCD4d3+4 chimeric protein, biotinylated (rabbit (Oryctolagus cuniculus)); test: SPR; BIAcore 3000, 37 °C, 10 mM HEPES pH 7.5, 150 mM NaCl, 3 mM EDTA, 0.02% P20; biotinylated rCD4d3+4 chimeras from concentrated tissue culture supernatants immobilised on streptavidin coated CM5 chip; purified monomeric soluble protein passed over in increasing concentrations; equilibrium binding, Langmuir isotherm
Chain of rabbit CD200R rCD4d3+4 chimeric protein, biotinylated (rabbit (Oryctolagus cuniculus)) (main, as listed by the source mutant): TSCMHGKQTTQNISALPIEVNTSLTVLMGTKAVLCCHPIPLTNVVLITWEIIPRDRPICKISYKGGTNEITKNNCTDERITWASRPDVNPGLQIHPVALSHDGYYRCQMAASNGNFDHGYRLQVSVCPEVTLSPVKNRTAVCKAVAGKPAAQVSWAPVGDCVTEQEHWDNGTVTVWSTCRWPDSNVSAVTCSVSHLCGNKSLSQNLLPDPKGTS

[3] = target: rat CD200R rCD4d3+4 chimeric protein, biotinylated (rat) (UniProt Q9ES58); test: as above
[4] = target: rabbit CD200 rCD4d3+4 chimeric protein, biotinylated (rabbit (Oryctolagus cuniculus)); test: as above

Chain of UniProt P41217 (P41217 31-232): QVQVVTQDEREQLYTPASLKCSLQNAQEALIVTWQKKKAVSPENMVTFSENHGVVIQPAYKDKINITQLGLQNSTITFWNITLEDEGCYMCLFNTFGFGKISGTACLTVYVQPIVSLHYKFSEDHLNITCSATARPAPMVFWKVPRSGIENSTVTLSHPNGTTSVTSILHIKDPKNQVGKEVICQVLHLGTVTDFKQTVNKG
Chain of UniProt O54901 (O54901 31-232): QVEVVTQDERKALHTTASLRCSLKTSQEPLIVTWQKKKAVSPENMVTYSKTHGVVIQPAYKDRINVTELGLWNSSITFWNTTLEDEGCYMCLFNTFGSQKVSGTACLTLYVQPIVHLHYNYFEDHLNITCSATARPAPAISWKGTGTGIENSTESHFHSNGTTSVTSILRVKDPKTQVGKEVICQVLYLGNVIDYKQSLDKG
Chain of UniProt P04218 (P04218 31-232): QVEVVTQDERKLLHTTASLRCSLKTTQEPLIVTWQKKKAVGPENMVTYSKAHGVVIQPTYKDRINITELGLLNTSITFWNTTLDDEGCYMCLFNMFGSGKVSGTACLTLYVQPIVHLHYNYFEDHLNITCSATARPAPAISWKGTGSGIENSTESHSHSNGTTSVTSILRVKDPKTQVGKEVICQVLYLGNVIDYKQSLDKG

CD200R (from UniProt Q8TD46)
pKd (CD200 (Homo sapiens)): 6.30

CD200R (from UniProt Q9ES57)
pKd (CD200 (Mus musculus)): 5.40

CD200R (from UniProt Q9ES58)
pKd [1]: 5.82

soluble recombinant rabbit CD200 (extracellular region, His tag) (from UniProt A0A0S4XRM6 1-233) (ligand)
pKd [2]: 5.47 to 5.48 | pKd [3]: 5.29

soluble recombinant rabbit CD200R (extracellular region, His tag) (from UniProt A0A0S4XR64 1-238) (receptor)
pKd [4]: 5.47 to 5.48
